Laboratory results as given in patent US20180362660A1 (published 2018).
Changes are numbered by the printed parent chain. Each block holds one binder with its values, some of them ahead of it.

How the values were obtained:
[1] = molecular target: T1, human penumbra protein (hpen) (human, UniProt Q86UF1 1-283); test: flow cytometry on human blood mononuclear cells, FITC-conjugated mAb
T1 construct: whole, on cells; Untagged; also called BaF3/hpen; tetraspanin 33
T1 sequence (looked up): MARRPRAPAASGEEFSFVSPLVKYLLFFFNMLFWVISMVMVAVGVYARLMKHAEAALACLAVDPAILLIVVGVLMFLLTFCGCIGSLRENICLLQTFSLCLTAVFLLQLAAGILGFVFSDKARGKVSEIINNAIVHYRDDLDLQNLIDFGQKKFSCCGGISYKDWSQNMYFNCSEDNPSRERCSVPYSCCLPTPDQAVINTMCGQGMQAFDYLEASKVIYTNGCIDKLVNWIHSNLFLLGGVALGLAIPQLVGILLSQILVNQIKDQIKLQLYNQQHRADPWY

[2] = molecular target: T2, mouse penumbra protein (mpen), native, on primary mouse B lymphocytes (mouse, UniProt Q8R3S2 1-283); test: flow cytometry on Balb/C mouse bone marrow cells, FITC-conjugated mAb
T2 construct: whole, on cells; This form has no tag, unlike m5; also called cell surface pen
T2 sequence (looked up): T1 sequence (looked up) with R6G, A7V, S11Y, E13D, A103I, K163R, D195N, F210L, I259V
Protocol: Flow cytometry data were analyzed using FloJo v.10 software. The number in each quadrant denotes %. FIG. 5A: A dot plot of isotype-PE vs. isotype-FITC. FIG. 5B: A dot plot of isotype-PE vs. A296.2-FITC. FIG. 5C: Anti-CD19-PE vs. isotype-FITC. […] FIG. 5E: Anti-B220-PE vs. isotype-FITC. […] FIG. 5G: Anti-CD20-PE vs. isotype-FITC. […] FIG. 5I: Anti-CD138-PE vs. isotype-FITC. […] FIG. 5K: Anti-CD117-PE vs. isotype-FITC. […] FIG. 5M: TER119-PE vs. isotype-FITC. […] FIG. 5O: Anti-Mac-1-PE vs. isotype-FITC. […] Data shown were lymphocyte-gated.
(§1) The medium used for cell staining was Hank's Balanced Salt Solution (HBSS) supplemented with heat-inactivated FBS (5% vol/vol) and sodium azide (0.09% wt/vol). This solution is known as “H5FAH”. All staining and washing were performed at 4° C. The flow cytometer used was a DxP flow cytometer with CYTOTEK™ upgrade (Cytotek). Analysis of flow cytometry data was performed using FLOWJO™ v. 9 (FIG. 3 only) or v.10 (Beckton-Dickinson)(BD). Fluorescence microscopy was performed using a microscope equipped with a digital camera.

[3] = molecular target: T3, mouse penumbra protein (mpen) fused to a C-terminal Myc-Hisx6 tag, on BaF3/mpen cells (mouse, UniProt Q8R3S2 1-283); test: flow cytometry, hybridoma supernatant on live BaF3/mpen, GAMIgs-FITC detection
T3 construct: whole, on cells; Stably expressed in the pen-negative mouse pre-B cell line BaF3; also called cell-surface pen; tetraspanin 33; not shown: Myc-Hisx6 tag from vector pcDNA3.1 at the intracellular C-terminus
T3 sequence (looked up): T1 sequence (looked up) with R6G, A7V, S11Y, E13D, A103I, K163R, D195N, F210L, I259V
Protocol: as §1

[4] = molecular target: T1, human penumbra protein (hpen); test: immunofluorescence microscopy on live BaF3/hpen
[5] = molecular target: T3, mouse penumbra protein (mpen) fused to …; test: immunofluorescence microscopy on live BaF3/mpen
[6] = molecular target: T3, mouse penumbra protein (mpen) fused to …; test: indirect immunofluorescence microscopy on live BaF3/mpen

binding result [1]: binds
binding result [2]: binds
binding result [3]: binds
B1: mAb 29A6.2 (antibody, V domains shown)
VH: QVQLKQSGPGLVQPSQSLSITCTVSGFSLTSYGVHWVRQSPGKGLEWLGVIWSGGSTDYNAAFISRLSISKDNSKSQVFFKMNSLQADDTAIYYCATFDYWGQGTTLTVSS
VL: DIVITQDELSNPVTSGESVSISCRSSKSLLYKDGKTYLNWFLQRPGQSPQLLIYLMSTRASGVSDRFSGSGSGTDFTLEISRVKAEDVGVYYCQQLVEYPFTFGSGTKLEIKR
notes: Tested as hybridoma supernatant or as purified, FITC-conjugated antibody; also called 29A6.2-FITC; hybridoma 29A6.2

binding result [4]: binds
binding result [5]: binds
binding result [2]: binds
B2: mAb 59E6.8 (antibody, V domains shown)
VH: QVQLQQPGAELVKPGASVKMSCKASGYTFTSYWITWVKQRPGQGLEWIGDIYPGSGSTNYNEKFKSKATLTVDTSSSTAYMQLSSLTSEDSAVYYCARDYYGSSYDYWGQGTTLTVSS
VL: B1 VL
notes: The first 19 amino acids of each entry are signal peptides and are left out; Tested as hybridoma supernatant or as purified, FITC-conjugated antibody; also called 59E6.8-FITC; anti-pen mAb

binding result [4]: binds
binding result [6]: binds
binding result [2]: binds
B3: mAb 41B10.13 (antibody, V domains shown)
VH: QVQLKESGPGLVAPSQSLSITCTVSGFSLTSYAISWVRQPPGKGLEWLGVIWTGGGTNYNSALKSRLSISKDNSKSQVFLKMNSLQTDDTARYYCAREGNAYYSNYESTAYWGQGTLVTVSA
VL: B1 VL
notes: The first 19 amino acids of each entry are signal peptides and are left out; Tested as hybridoma supernatant or as purified, FITC-conjugated antibody; also called 41B10.13-FITC; 41B10-FITC
